Assay: protein stability index of a GFP-peptide fusion (GPS, HEK-293T) (PSI 1-6); higher = more stable
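Note: lentivirally expressed fusions sorted by FACS into six bins by GFP to DsRed ratio, PSI derived from sequencing read proportions per bin multiplied by bin number.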

GERVVINISGLRFETQLKTLCQFP
protein stability index (parent: IOH61428_18, c terminus: a fixed tail appended): 2.31

LLQRELMVPGTRHSAVLRDLRSGT [TNXB WT]
protein stability index (parent: IOH81617_23, c terminus: a fixed tail appended): 2.54

FVVEYHGDLIEITDAKKREALYAQ
protein stability index (parent: IOH80936_41, c terminus: a fixed tail appended): 2.1

YCSIKCQQEHWHAEHKRTCRRKR [ZMYND11 WT]
protein stability index (parent: IOH62570_82, c terminus: native): 2.53

NSISSDKEATVPCTEILTEKKDTI
protein stability index (parent: IOH80698_58, c terminus: a fixed tail appended): 5.37

HDPLYGKLFSTYLRPPHTSRGTSQ [LPCAT4 WT]
protein stability index (parent: IOH62663_80, c terminus: a fixed tail appended): 2.6

KKPPEESTCFERPCFKWYTSPWSE [ADAMTSL2 WT]
protein stability index (parent: IOH80445_141, c terminus: a fixed tail appended): 2.4

FGEDGIFRHDRLRFRDFVDALEDS
protein stability index (parent: IOH61084_108, c terminus: a fixed tail appended): 2.59

FTPPTSLTRAGMSYYNSPGLHVQH
protein stability index (parent: IOH61736_64, c terminus: a fixed tail appended): 1.82

FAQADALKGTLVSTLKEVKPTVFI
protein stability index (parent: IOH62594_50, c terminus: a fixed tail appended): 1.64

VAHVKHLSASQKALKEKEKASWSS
protein stability index (parent: IOH62819_9, c terminus: a fixed tail appended): 3.21

SKPKTFQAYLDDCHRRYSCAHCRA [YPEL3 WT]
protein stability index (parent: IOH80494_8, c terminus: a fixed tail appended): 1.87

ASVTIQARAEQEEEFISNTLFKKI
protein stability index (parent: IOH61736_17, c terminus: a fixed tail appended): 3.51

LLQRELAQEDSLNKLALQYGCKVA [LYSMD4 WT]
protein stability index (parent: IOH63099_13, c terminus: a fixed tail appended): 1.92

YQSGGRIRRPVNVPIDIFSEEIRF
protein stability index (parent: IOH61428_28, c terminus: a fixed tail appended): 2

CRNCINLQNEAQKRESFLKYKCLL
protein stability index (parent: IOH62149_105, c terminus: a fixed tail appended): 2

FGSRSLYSLGGVRSLNVASGSGKS
protein stability index (parent: IOH63384_8, c terminus: a fixed tail appended): 1.86

DDLTVVDAASLRRQIIKLNRRLQL
protein stability index (parent: IOH62657_32, c terminus: a fixed tail appended): 2.1

WIVDKQHVYIGSAGLDWQSLGQMK
protein stability index (parent: IOH63495_23, c terminus: a fixed tail appended): 1.79

EADKNDKAVKDLVVLLFETALLSS
protein stability index (parent: IOH61079_108, c terminus: a fixed tail appended): 1.84

YPEQSKGFHKAGSMLPPVNFSIVP
protein stability index (parent: IOH63376_36, c terminus: a fixed tail appended): 1.94

ELRNVQDVVEDYKKRYEEEINKRT
protein stability index (parent: IOH63384_35, c terminus: a fixed tail appended): 3.49

SLGKQKVFIIRKSLLDELMEVQHF [SOAT2 WT]
protein stability index (parent: IOH63195_17, c terminus: a fixed tail appended): 2.25

FTSPDYQQQCHEMAERLEDSVLKG [C1orf55 WT]
protein stability index (parent: IOH61664_26, c terminus: a fixed tail appended): 2.15

CCSSADICPKCWTLMTMAIRIIDR [PRIM1 WT]
protein stability index (parent: IOH60890_21, c terminus: a fixed tail appended): 1.95

EKQKQPRWREGTKDSHDPLPSWAE
protein stability index (parent: IOH61084_93, c terminus: a fixed tail appended): 2.16

QVANSAFVERVRKRGFEVVYMTEP
protein stability index (parent: IOH61079_83, c terminus: a fixed tail appended): 2.26

KKAQGKTQQNRKLTDFYPVRRSSR
protein stability index (parent: IOH80936_29, c terminus: a fixed tail appended): 2.19

RNALENIRKEMKLLEQAGSLKGSL [CRYL1 WT]
protein stability index (parent: IOH81349_8, c terminus: a fixed tail appended): 3.44

YTEGISQRMRVPEKLKVAPPNADL
protein stability index (parent: IOH62657_3, c terminus: a fixed tail appended): 2.94

DMVSNIELPTRIHEEVYFEPSSSK
protein stability index (parent: IOH80698_88, c terminus: a fixed tail appended): 3.89

LQQLRARLQGLEADCVRGPDGVCL
protein stability index (parent: IOH61084_56, c terminus: a fixed tail appended): 2.22

MAEISRIQYEMEYTEGISQRMRVP
protein stability index (parent: IOH62657_1, c terminus: a fixed tail appended): 2.65

TPMTIPEFFRESVNRFGTYPALAS
protein stability index (parent: IOH62594_9, c terminus: a fixed tail appended): 2.12

FDKEWVAKQTKRMLDMKVNPIQGL
protein stability index (parent: IOH62819_23, c terminus: a fixed tail appended): 1.75

YSEYPECCVDVKPISQEKIESERA [DUSP5 WT]
protein stability index (parent: IOH62976_23, c terminus: a fixed tail appended): 4.09

GKQAPRKKAQGKTQQNRKLTDFYP
protein stability index (parent: IOH80936_28, c terminus: a fixed tail appended): 2.67

EILGCPLPDPNNYYHRRNEMTTTD
protein stability index (parent: IOH80553_49, c terminus: a fixed tail appended): 3.32

LPVETLGPASRMDPESERALQAPH
protein stability index (parent: IOH61084_4, c terminus: a fixed tail appended): 4.39

STTALGDKQRKANESKGTRESWDS [TCEB3B WT]
protein stability index (parent: IOH63382_68, c terminus: a fixed tail appended): 3.77

QKELQDVGQSLRIKEQEVCKLQEQ [SASS6 WT]
protein stability index (parent: IOH63533_44, c terminus: a fixed tail appended): 5.02

YHTSQSGDEMTSLSEYVSRMKETQ
protein stability index (parent: IOH61079_77, c terminus: a fixed tail appended): 3.7

KRTYWPDLDAKIREALVLRSVRVR
protein stability index (parent: IOH63495_45, c terminus: a fixed tail appended): 2.02

EADYEDDSKIAFLMQLQDIQYLTE
protein stability index (parent: IOH62149_110, c terminus: a fixed tail appended): 3.05

LTSDLYAPMVAGALARLGTVTVIS [SLC25A39 WT]
protein stability index (parent: IOH63154_27, c terminus: a fixed tail appended): 2.94

TASTKNCMVGYDMGATRCDFTLSK
protein stability index (parent: IOH80553_117, c terminus: a fixed tail appended): 2.15

VTYMNMTAYNKGRLQSSFWIVDKQ
protein stability index (parent: IOH63495_20, c terminus: a fixed tail appended): 2.36

KIREKEEWIKLDYHRRHNPKTNED
protein stability index (parent: IOH62149_64, c terminus: a fixed tail appended): 4.36

FMPAMQFSIPPWRYDAEVVAIAQK [KIAA1161 WT]
protein stability index (parent: IOH61072_98, c terminus: a fixed tail appended): 1.76

TLFKKIQALQKEKETLAVNYEKEE
protein stability index (parent: IOH61736_20, c terminus: a fixed tail appended): 3.05

CSWKGATKQRIQDQKVPYIFRDNQ [CHIT1 WT]
protein stability index (parent: IOH63601_52, c terminus: a fixed tail appended): 2.59

SVIEPVQESSFRSRKIAVEDENDL
protein stability index (parent: IOH80698_41, c terminus: a fixed tail appended): 5.18

GRKKYDIDPRNGIPKLTPGDNPYM
protein stability index (parent: IOH63376_32, c terminus: a fixed tail appended): 3.52
